Reference: patent US20170088634A1, “TREATMENT OF NEUROTRAUMA USING ANTIBODIES TO LYSOPHOSPHATIDIC ACID” (priority 2012, published 2017)
Like-named read-outs stand apart in the source and are kept apart here. Marks after values point to notes of the source that are not given here.

Legend:
hNS/PC neurospheres [1] = assay: Neuronal differentiation of plated neurospheres (neuron-forming neurospheres); format: cell-based, human
Experimental: (§1) Neurospheres were used to model the role of LPA in neuronal differentiation as described in commonly-owned U.S. patent application publication no. US20110076269 and U.S. Pat. No. 8,604,172. […] LPA also interferes with an additional differentiation step, namely, the differentiation of NSC toward mature cells.
Using the same conditions used in Example 2, above, for LPA treatment alone, plated neurospheres were treated with 10 μM LPA alone, or with anti-LPA antibody B3 or B7 (1 mg/ml) alone, or with 10 μM LPA in combination with 1 mg/ml of antibody B3 or B7. Similarly, cells were treated with 10 μM LPA alone, humanized anti-LPA antibody LT3015 alone (1 mg/ml), or with 10 μM LPA in combination with 1 mg/ml LT3015. The percent of neuron-forming neurospheres was quantitated as in Example 2 (beta-tubulin staining and quantification of neuron-forming spheres, as described in Dottori, et al (2008)). […] Neurosphere samples treated with B3 antibody alone had neuron-forming neurospheres equivalent to control (100%). […] The antibody B7, under similar conditions, had little to no effect in this experiment (37.00±5.31% of control).
Using the conditions described in the Example above, […] were plated onto laminin for neuronal differentiation in NBM medium (3 days), with or without LPA (10 μM), with or without antibody to LPA at 1 mg/ml (B3, B7, or the humanized antibody LT3015, tested singly with or without LPA).

hNS/PC neurospheres [2] = assay: Neurosphere formation; format: cell-based, human; details: LPA 10 uM
Source text: as §1
Anti-LPA antibodies have been found by the inventors to block LPA inhibition of neurosphere formation, as described in commonly-owned U.S. patent application publication no. US20110076269 and U.S. Pat. No. 8,604,172.

adult mouse NSC = assay: Neuronal differentiation of adult mouse NSC; format: cell-based
Source text: However, and similarly to data obtained in human NSC, LPA inhibited the neuronal differentiation of adult mouse NSC by maintaining them as NSC when plated in conditions normally inducing neuronal differentiation. […] These effects were independent of apoptosis or proliferation.

[3] = Competition ELISA, competitor lipid 14:0 LPA; format: binding; details: maximum inhibition
Source text: (§2) Although polyclonal antibodies against naturally-occurring LPA have been reported in the literature (Chen, et al., Bioorg Med Chem Lett. 2000 Aug. 7; 10(15):1691-3), monoclonal antibodies to LPA had not been described until Sabbadini, et al., U.S. patent application publication no. 20080145360, and U.S. Pat. No. 8,158,124, both of which are commonly owned herewith. The former publication describes the production and characterization of a series of murine monoclonal antibodies against LPA and the latter describes, among other things, a humanized monoclonal antibody against LPA. IC50: Half maximum inhibition concentration; MI: Maximum inhibition (% of binding in the absence of inhibitor); ---: not estimated because of weak inhibition. A high inhibition result indicates recognition of the competitor lipid by the antibody.

[4] = Competition ELISA, competitor lipid 16:0 LPA; format: binding; details: maximum inhibition
Source text: as §2

[5] = Competition ELISA, competitor lipid 18:1 LPA; format: binding; details: maximum inhibition
Source text: as §2

[6] = Competition ELISA, competitor lipid 18:2 LPA; format: binding; details: maximum inhibition
Source text: as §2

[7] = Competition ELISA, competitor lipid 20:4 LPA; format: binding; details: maximum inhibition
Source text: as §2

[8] = Competition ELISA specificity, competitor lipid LPC; format: binding; details: n = 3
Experimental: (§3) The specificity of the anti-LPA mAbs was assessed for their binding to LPA-related biolipids such as distearoyl-phosphatidic acid, lysophosphatidylcholine, SIP, ceramide, and ceramide-1-phosphate.

[9] = Competition ELISA specificity, competitor lipid S1P; format: binding; details: n = 3
[10] = Competition ELISA specificity, competitor lipid C1P; format: binding; details: n = 3
[11] = Competition ELISA specificity, competitor lipid Cer; format: binding; details: n = 3
[12] = Competition ELISA specificity, competitor lipid DSPA (distearoyl PA); format: binding; details: n = 3
Experimental: as §3

[13] = Surface plasmon resonance (BiaCore) and direct binding ELISA of LT3000; details: Table 12
Source text: (§4) The murine antibody is a full-length IgG1 k isotype antibody composed of two identical light chains and two identical heavy chains with a total molecular weight of 155.5 kDa.

[14] = Specificity of LT3000 against other lipids and proteins; format: binding; details: over 100 different bioactive lipids and proteins, including over 20 bioactive lipids
Source text: as §4

Apparent Tm of antibody = format: physicochemical; details: pH7.4
Solubility of antibody = format: physicochemical; details: 6.6 mM phosphate, 154 mM sodium chloride, pH 7.4
SKOV3 cell migration = assay: Migration assay, SKOV3 cells triggered by LPA; format: cell-based; details: Lpathomab, 1 mM 18:1 LPA, SKOV3, n = 3
SKOV3 cell invasion = assay: Invasion assay, SKOV3 cells triggered by LPA; format: cell-based; design: dose or concentration left out as unconfirmed; details: Lpathomab 14:0 LPA, SKOV3, n = 2
human IL-8 = assay: LPA-induced IL-8 release in SKOV3 conditioned media; format: cell-based; design: dose or concentration left out as unconfirmed; details: Lpathomab 18:1 LPA, SKOV3, n = 3
human IL-6 = assay: LPA-induced IL-6 release in SKOV3 conditioned media; format: cell-based; details: Lpathomab 300-600 mg/mL, 1 mM 18:1 LPA, SKOV3, n = 3
SKOV3 cells = assay: Apoptosis: Taxol induced caspase-3 activation in SKOV3 cells, LPA protection; format: cell-based; details: Lpathomab, 1 mM Taxol, 1 mM 18:1 LPA, SKOV3, n = 1
[15] = Binding affinity of humanized, chimeric and murine anti-LPA antibodies
[16] = Specificity / cross-reactivity profile; format: binding
interleukin-8 (IL-8) = assay: IL-8 release from ovarian cancer cells; format: cell-based
Source text: Five humanized variants were further assessed in in vitro cell assays. LPA is important in eliciting release of interleukin-8 (IL-8) from cancer cells.

[17] = cited from earlier work
[18] = cited from earlier work; remark: listed apart in the source
[19] = cited from earlier work; remark: listed apart in the source
[20] = cited from earlier work; remark: listed apart in the source
[21] = cited from earlier work; remark: listed apart in the source

lysophosphatidic acid [LPA]
decrease in neuron-forming spheres (hNS/PC neurospheres [1]; 10 uM LPA): ~80% | neuron-forming spheres, LPA alone (Example 4) (hNS/PC neurospheres [1]; 10 μM LPA, 3 days): approximately 26 % of control | neurosphere formation, LPA (hNS/PC neurospheres [2]): inhibited | neurosphere formation or growth of mouse NSC (adult mouse NSC): did not modify | βIII-tubulin expression (differentiated neurons) (adult mouse NSC; LPA (10 NM), three days, untreated 57.12±18.42%): 26.25±2.08 % of total cells | nestin positive (undifferentiated NSCs) (adult mouse NSC; LPA (10 NM), three days, untreated 58.01±6.20): 87.55±3.20 % of total cells

B1: B7: murine anti-LPA monoclonal antibody, full-length IgG1k; VH SEQ ID NO: 3, VL SEQ ID NO: 4 (antibody, V domains shown)
VH: QVQLQQSGAELVRPGTSVKVSCKASGYGFINYLIEWIKQRPGQGLEWIGLINPGSDYTNYNENFKGKATLTADKSSSTAYMHLSSLTSEDSAVYFCARRFGYYGSGNYFDYWGQGTTLTVSS
VL: DVVMTQTPLSLPVSLGDQASISCTSGQSLVHINGNTYLHWYLQKPGQSPKLLIYKVSNLFSGVPDRFSGSGSGTDFTLKISRVEAEDLGVYFCSQSTHFPFTFGTGTKLEIK
MI, competitor lipid 14:0 LPA [3]: 61.3% | MI, competitor lipid 16:0 LPA [4]: 62.9% | MI, competitor lipid 18:1 LPA [5]: 100% | MI, competitor lipid 18:2 LPA [6]: 100% | MI, competitor lipid 20:4 LPA [7]: 67% | MI, competitor lipid LPC [8]: 0% | MI, competitor lipid S1P [9]: 2.7% | MI, competitor lipid C1P [10]: 1.0% | MI, competitor lipid Cer [11]: 1% | MI, competitor lipid DSPA [12]: 0% | Kd [13]: 0.001 to 0.05 nM | binding affinity for other bioactive lipids and proteins (specificity) [14]: no binding affinity | Apparent Tm (Apparent Tm of antibody): 67 °C at pH7.4 | Solubility (Solubility of antibody): >40 mg/mL in 6.6 mM phosphate, | Migration % Inhibition (over LPA taken as 100) (SKOV3 cell migration): 35* % | Invasion % Inhibition (over LPA taken as 100) (SKOV3 cell invasion): 95* % | IL-8 Release % Inhibition (over LPA taken as 100) (human IL-8): 20% | IL-6 Release % Inhibition (over LPA taken as 100) (human IL-6): 23* % | Apoptosis % Induction (over LPA + TAXOL taken as 100) (SKOV3 cells): 79% | binding affinity for LPA (in words) [15]: low picomolar range | cross-reactivity to LPC, PA, 14:0 and 18:1 LPA, cPA, PC [16]: no cross-reactivity | IL-8 release from ovarian cancer cells (interleukin-8 (IL-8)): reduced IL-8 release | neuron-forming neurospheres, LPA plus antibody (pool of data) (hNS/PC neurospheres [1]; 10 μM LPA in combination with 1 mg/ml antibody): 37.00±5.31 % of control | number of neurons in neurospheres (comparison between antibodies) (hNS/PC neurospheres [1]; 10 μM LPA plus antibody 1 mg/ml): lesser number of neurons | neuron-forming neurospheres, LPA plus antibody (Example 4) (hNS/PC neurospheres [1]; 10 μM LPA, antibody 1 mg/ml, 3 days on laminin in NBM medium): 50 % of control | IC50 ([17]; competition ELISA, half maximum inhibition concentration, read-out: 14:0 LPA IC50): 105 nM | 14:0 LPA MI ([17]; maximum inhibition (% of binding in the absence of inhibitor)): 61.3% | IC50 ([18]; competition ELISA, read-out: 16:0 LPA IC50): 483 nM | 16:0 LPA MI ([18]; maximum inhibition): 62.9% | IC50 ([19]; competition ELISA, read-out: 18:1 LPA IC50): > 2000 nM | 18:1 LPA MI ([19]; maximum inhibition): 100% | IC50 ([20]; competition ELISA, read-out: 18:2 LPA IC50): 1490 nM | 18:2 LPA MI ([20]; maximum inhibition): 100% | IC50 ([21]; competition ELISA, read-out: 20:4 LPA IC50): 161 nM | 20:4 LPA MI ([21]; maximum inhibition): 67%
